How the values were obtained:
[1] = test system: dry eye; conditions: 2% suspension, versus baseline; cited from earlier work
[2] = in vivo; cited from earlier work
[3] = local application incl. conjunctival sac, scalp, gums, mucosa, wounds
Description: The present invention formulation contains only 0.05 IU per drop which can be increased in severe disease states.

[4] = test system: dry eye syndrome; test: Therapeutic activity against dry eye syndrome; format: in vivo; conditions: incl. KCS, Sjogren's syndrome, MGD
Description: Also, the terminology used herein is for the purpose of description and not of limitation.

[5] = Local insulin on ulcers and tooth extraction wounds; format: in vivo; conditions: insulin soaked cotton swabs, 1-3 units in normal saline
Description: (§1) The present inventors have used insulin for more than a decade to enhance the effectiveness of locally injected therapeutic agents especially cancers with chemotherapeutic agents with remarkable results. […] It stimulated the fibroblast, endothelial cell, angiogenesis and skin cell growth resulting accelerated wound healing.

[6] = test system: indolent ulcers; test: as above; format: in vivo; conditions: insulin spray, anywhere in the body incl. oral and nasal cavity
Description: as §1

[7] = test system: advanced and localized cancers; test: Insulin followed by chemotherapeutic agents injected into cancer masses; format: in vivo; conditions: insulin followed by anticancer chemotherapeutic agents, direct injection
Description: Our study of injecting Insulin followed by anticancer chemotherapeutic agents directly into cancer masses on hundreds of advanced and localized cancers supports these finding also. […] We treated multiple brain cancer patients by directly injecting insulin with mannitol followed by with specific anti tumor Chemo-therapeutic agents with dextrose and heparin directly infused into the internal carotid artery with positive results. Patients lived longer with good quality of life with less side effects to the chemotherapy agents.

[8] = test system: musculoskeletal pain; test: Prolotherapy injectate with insulin; format: in vivo; conditions: with insulin versus prolotherapy agent alone
Description: The inventors have used glucose along with insulin and lidocaine in our prolotherapy injectate for various musculoskeletal pain, including arthritis, back pain, neck pain, fibromyalgia, sports injuries, unresolved whiplash injuries, carpal tunnel syndrome, chronic tendonitis, partially torn tendons, ligaments and cartilage, degenerated or herniated discs, TMJ pain and sciatica. It is important to note the principle of prolotherapy is to induce fibroblasts to multiply and lay more ligaments (collagen); make the ligaments and tendons stronger inducing sterile inflammation at the site. Insulin can enhance the multiplication of fibroblasts by these prolotherapy and other sterile inflammatory therapeutic agents to make ligaments stronger. […] Insulin increased the fibroblast mitosis and thus increased production of collage to strengthen the ligaments of the painful joint giving long lasting fast pain relief with stronger functional joints. When insulin is therapeutically effective ever in taking away the pain by various prolotherapy therapeutic agents, one can see how effective it is in treating the dry eye syndrome and associated diseases of the eye.

[9] = test system: pain; test: Trigger point and joint injection of local anesthetic with insulin; format: in vivo; conditions: local anesthetic with insulin versus injectate without insulin
Description: Trigger points or trigger sites are described as hyperirritable spots in skeletal muscle that are associated with palpable nodules in taut bands of muscle fibers whose compression may elicit local tenderness, referred pain, or local twitch response. There are many therapies to take away the tenderness and sore spots.

[10] = test system: MCF-7 human breast cancer cells; conditions: in vitro, MCF-7 cells, methotrexate in presence of insulin; cited from earlier work
[11] = test system: dry mouth and dry eyes conditions; test: ADT (Sialor) orally and/or as eye drops in dry mouth and dry eyes; format: in vivo; conditions: 25 mg orally and/or ophthalmic drops; chemotherapy patients, menopausal women, chronic smokers
Description: Another drug available is an organo sulfur compound, anethole dithiolethione (ADT, 5-[p-methoxyphenyl]-3H-1,2-dithiol-3-thione, trade name Sialor™) with hardly any side effects. It stimulates the secretion of saliva in patients with autoimmune exocrinopathy (e.g. Sjogren's syndrome). Sialor alleviates the symptoms of xerostomia and xeroophthalmia. We have used Sialor, 25 mg orally and/or ophthalmic drops with successes in these conditions especially those on chemotherapy, menopausal women, and chronic smokers with dry mouth and dry eyes conditions. ADT increases the glutathione synthesis by activating gamma-glutamyl-cysteine synthetase. ADT reduced both polymorphonuclear neutrophils adhesion to ROS (reactive oxygen species—can be effective in post perfusion adhesion of white blood cells to ROS with resultant damage) and stimulated tyrosine phosphorylation.
Another drug available to treat KCS is a organo sulfur compound, anethole dithiolethione (ADT—trade name Sialor) with hardly any side effects. It stimulates the secretion of saliva, in patients with autoimmune exocrinopathy (Sjogren's syndrome). Sialor alleviates the symptoms of xerostomia and xeroophthalmia. […]

[12] = test system: Wurzburg cells; conditions: cited from earlier work
[13] = test system: dry eye syndrome; test: MSM mixed with insulin as eye drops; format: in vivo; conditions: aqueous MSM mixed with insulin, chemotherapy, allergic eyes, contact lens wearers
Description: Methylsulfonylmethane (MSM), is an organosulfur compound with the formula (CH3)2SO2, a metabolite of DMSO. It is also known by several other names: DMSO2, MSM, Methylsulfonylmethane, methyl sulfone, and dimethyl sulfone. It is marketed as dietary supplement and also used for osteoarthritis, allergic rhinitis, interstitial cystitis, and throat spray for snoring. Stanley W. Jacob, M.D., of the Oregon Health and Science University, reports using MSM to treat over 18,000 patients with a assortment of ailments (MSM the Definitive Guide: The Nutritional Breakthrough for Arthritis, Allergies and More. Freedom Press. 2003. ISBN 9781893910225. http://www.amazon.com/MSM-Definitive-Guide-Nutritional-Breakthrough/dp/1893910229). It is soluble in water, and a good solvent like DMSO. We have used aqueous solutions of MSM, filtered and sterilized and mixed with insulin and used as eye drops to treat dry eye syndrome during chemotherapy, allergic conditions of the eyes and contact lens wearers with good results.

[14] = relative to testosterone; cited from earlier work
[15] = test system: dry eye; conditions: ophthalmic drops, compared to artificial tears or testosterone; cited from earlier work
[16] = test system: scleroderma and systemic lupus erythematosus; conditions: with insulin

O=C(NC(Cc1cc(=O)[nH]c2ccccc12)C(=O)O)c1ccc(Cl)cc1 (stereo not drawn) [Rebamipide]
fluorescein corneal staining [1]: decreased from baseline | subjective parameters such as gritty/sandy sensation and burning/pain [1]: decreased from baseline

Regular (soluble): short-acting insulin
Effective duration of action [2]: 3 to 6 h | Maximum duration [2]: 6 to 8 h | Peak action in hours [2]: 2 to 3 h

insulin
blood sugar levels (hypoglycemic effects) [3]: did not change the blood sugar levels | therapeutic activity against dry eye syndrome [4]: high therapeutic activity | healing after teeth extraction [5]: rapid healing with reduced pain | healing of indolent ulcers [6]: augmented the healing | palpable tumors including enlarged lymph nodes [7]: literally melted away | effectiveness of prolotherapy [8]: more effective | relief of pain [9]: rapid and effective relief of pain | increase of the cytotoxic effect of methotrexate [10]: up to 10,000 fold

Insulin lispro
Onset of Action in hours [2]: ¼-½

COc1ccc(-c2cc(=S)ss2)cc1 [ADT, 5-[p-methoxyphenyl]-3H-1,2-dithiol-3-thione]
treatment outcome in dry mouth and dry eyes conditions [11]: successes | H2O2 induced lipid peroxidation ([12]; ADT pretreatment of Wurzburg cells): remarkably inhibited | glutathione levels ([12]; compared with untreated Wurzburg cells): rises glutathione levels significantly

Insulin detemir
Effective duration of action [2]: 14 h | Maximum duration [2]: ~20 h | Onset of Action [2]: 3 to 4 h | Peak action in hours [2]: 6 to 8 h

IGF-1: Insulin-like Growth factor (IGF-1), which has insulin like effects
therapeutic activity against dry eye syndrome [4]: high therapeutic activity

CS(C)(=O)=O [MSM, Methylsulfonylmethane]
treatment outcome in dry eye syndrome [13]: good results

Insulin aspart
Onset of Action in hours [2]: ¼-½

NPH (isophane): intermediate-acting insulin
Effective duration of action [2]: 10 to 16 h | Maximum duration [2]: 14 to 18 h | Onset of Action [2]: 2 to 4 h | Peak action in hours [2]: 6 to 10 h

C[C@]12CC[C@H](O)CC1=CC[C@@H]1[C@@H]2CC[C@]2(C)C(=O)CC[C@@H]12 [DHEA, dehydroepiandrosterone]
androgenic activity of testosterone [14]: 5% | subjective patient response [15]: felt better

Insulin glargine
Effective duration of action [2]: 18 to 20 h | Maximum duration [2]: 20 to 24 h | Onset of Action [2]: 3 to 4 h | Peak action in hours [2]: 8 to 16 h

O=P1(N(CCCl)CCCl)NCCCO1 (stereo not drawn) [cyclophosphamide, Cyclophosphamide]
treatment outcome in scleroderma and systemic lupus erythematosus [16]: very successfully

Insulin glulisine
Onset of Action in hours [2]: ¼-½

Reference: patent publication US20120003296A1, “NEW METHODS OF TREATING DRY EYE SYNDROME” (priority 2010, published 2012)
